Reference: the DeepSol protein solubility set

test: soluble on expression in E. coli; label from the status in PepcDB or PDB records

Soluble on expression in E. coli, not soluble:
MGSDKIHHHHHHMWGYLQGKQVALKRNRVDLYHFGYMIRSKSARKLGTTTAQQIKDITDEIRAFLVKDHRDILSESFMNKEKRAAVEQIIKSFLLSNQVVISDVPSEQLLNMVCDDIVGFGIIEPLKEDQDVTDIYINGTKEIIYEKIGEGELTFPYRFETEEEVKALAYKMVNSTSESLNTAKPYVDCVFPYIRINIALDELGGLGTTITIRKNADHLRASEERMLSTNQASKEMLDFLAAAVKAKMNILVAGATGTGKSEFMKFLASHIPKGKKKERTLVVEDNPELYLHRIFPEHHFVPMQCRASEVEENAIDFDRLLTNALRQGPKRLIVGESRGKEALKMINFFQTGHPGFTSVHARSAIEAVRRLMLMCLQSGANIDAQYLYELISQTFDVIVFLEKKDDGNRYITEMIELLDYRGDIQFNELSQFIPTYEEQDEINESIGKIHGQHIITGKMSAKMEKKFRSATSVNPALYAPFLSQQEVQYA
MGSDKIHHHHHHMWHLFLECAFKIFLFEHSFKYFLNNFSKLGRLIIPSLKKTQIMRNAEFDRKAVLCAAMSVFTAKGYAKTSMQDLTKATGLHPGSIYCAFENKKGLLIAAIGQYQDERHQQFVRLFDNDAPCLSNLSNYLTEIVDECLSQDMSKACLLTKTLNEVGSQDEEIKTLITANLTAWQAALTAVFSLAQKNNEIDSQANSQELAQYLMMGIYGLRTFAHTHKDGQQLAQLAKKLLADVSR
MGSDKIHHHHHHMYGIVIVEDEELERQALRTILTENIDGIRILGEARTGTEAVALIDSCEIDLMLVDINIPNLNGLEVIRHLRDRHADTKVIITTAYDYFETTRTAIQLKVDEYLLKPIRTQALVTTIQSCIGQLGAGRQCRELVGRIADLVEQDGYQEGVTLVRRHIEWICTQRGHVPRDLILDFAGALVALARDKGLRLPDALTQQIGQLRTMPLDAQTGYQALGTFLGVVDLLFDVTGERFGYSSNTVKKVLNYIERNLTKRITLEDAAEYANISPSYLSRMFKKTLNVNFISYLTTRRIELAKETLIGTERPITAISQELSYSDVNYFCKSFKKEVGVSPTEYRRQSRLAQGAPPPREAALATG
MGSDKIHHHHHHMYLSQLKAGGVICRQGETARLVPGFSSTYDLAKAAIAAKVSITDLIAKQGAGDTVDLAALAASGKLDCPVRHPDAAHMFLTGTGLTHTGSASARDNMHADTAGMSDSMKMFRMGLEGGKPKAGEWGVQPEWFYKGTGVNAIAPGDGLESPSFALDGGEEPEIAGFYVIDNDGTPVRLGFSLANEFSDHVTEKINYLYLAHSKLRPASFGPELLVGDLPANVTGASKILRDGKTVWEKPFLSGEDNMSHTIANLEYHHFKYGLFCQPGDLHVHMFGTATLSFADGFKTVPGDVFEVSASQFGLPLQNPLVVAAETPFAVKTL
MGSDKIHHHHHHMYQEISKLLMYGDLPQDEILYKLGQLFEQFEVGEYNKTELVRDINTQVKRILKVATDYGFDDNLWHNYLTFFLMMSENPFSITCEKVGASDGSVNGLVANDFRIFKKLFDYDFKPIESALGIDCFTQISNYKAIVKKDLMYNHNVSEKVRALSKKLEAAKDEQEFFDVVTGFYKAYGVGMFGLNKAFRIEEHLDGGFSFMPINNMDAVMLDDLIGYEIQKKKLTDNTEAFVQGKKANNVLLFGDSGTGKSTSIKAIVNQYYDDGLRMIEIYKHQFKYLSKIIAAIKNRNYRFIIYMDDLSFEEHEIEYKFLKAVIEGGVETKPDNILIYATSNRRHLIKETWNDRNDQDNSNDKHHSDTVEEKLSLVNRFGVTISYSKPSQKEFFNIVTELARKSGCTLSDEELCREANKWELSHGGISGRTATQFVNYIMANN
MGSDKIHHHHHHMYRILVINPGSSSTKVAVFEDEKKIAEKNVSHSVEELKKFKRSMDQEPLRRKAVEDFIDEVGYRIEDFSAIAARGGVLEPVPGGTYVVNEYMVDYLINRSPVDHVSNLAAVIGYKLGKPHGIPCFVVDPVSVDEMCDEARFSGIPEIERKSYSHALNIKAVLRKVSREMGKTPEEVKIVVAHLGSGISVCACKNGKIIDVNNANDEGPFSIERTGELPVGDVVKTAYSSKHSAAELKEEFTRKGGLLAYLGTKNLKKALDSMETSRKAKLVVEAMAYQIAKEIGGMCAVLGEKPDAIVITGGMAHEIRFVRMITDYIEKFGKVEVIPGELEMEALALGVLRVLRGEEKAMDYRSVVE
MGSDKIHHHHHHNSISDSEVHVMVKTFEGHHVNRLEVLKNTWASDVSRIEYCSDKEDPAIPTINLGVDNTDRGHCAKTWEIFRRFLGSSGNGAKWLVVADDDTLMNFKRLKQMLELYDSGDKIIIGERYGYGFSLNGDSGYDYPTGGSGMIFTRSAVESLLAQCPSCIANTDPDDMTIGICALTAGIPIVHESRLHQARPLDYAPEYIKYPISFHKFTDIDPISVYYEYLVELEEYN
MGSDKIHHHHHHPWRLLTPDQRYQKRQSQLKSTMSDFFTWCESVHALPQSKFGRAIDYALSQREAMENVLLDGRLELSNNRVERAVKELVIGRKNWLFSTSFKGARSSGIILSVMRSAEANGLDCRKYLEYLFTELPNLSVPGDSKALQDYLPWSSQVRAICAR
MGSDKIHHHHHHQEPENQTLETILNRKSVRKYKDRPVEKEKIDKLIRAGMAAPSSRDRRPWEFIIVTDRKALDTMAEGLPFARMLKETRQAIVVCGDTIKSSNAWFLDCSAASQNLLLAAESMGLGAVWTAVYPYPDRIEIVRKELRLPDHIMPLNVIPVGYPMQKETPKNKYNVQQIHHNGW
MGSDKIHHHHHHQSMKKEEVPQNISAFPLGKENTGFKQYFTGESWLAPLTGNKDLNVPMSNVTFEPGCRNNWHSHTGGQILIAVGGVGYYQERGKAARRLLPGDVVEIAPDIEHWHGAAPDSWFSHLAIGCNPQTNKNIWLEQVDDQQYAEATKDNGGTGLSATDPELDAIFGNFTKEVQQYGNLDTKTRLMVTLASNIASQAQTEYRMMLESALNAGITPIEIKEILYQAVAYAGMAKVMDFVGITNEALLAHGVRLPLEGQAVVSAETRFDKGLALQKSIFGERIDQMHKNAPENQKHIQRYLSANCFGDYQTRGGLDVKTRELLTFSILVSLGGCESQVKGHIQGNVNVGNNKDTLLAVVTQLLPYIGYPRTLNAIACLNEVIPEK
MGSDKIHHHHHHSCKQAPDAGVKSSYAVMQIEPTDKELSSSYSATIRGRQDIDIYPQVSGTIEKLCVTEGQKVRRGQLLFIIDQVPYRAALKTATANVEAARAATSTAELTYKSNKELYAQKVVSEFSLKTAENSYLTAKAQLAQAEAQEISARNNLSYTEVKSPSDGVVGALPYRAGALVSANIPYPLTTVSDNSDMYVYFSMTENQLLALTRQYGDMDEALKNMPEVELILNDNSVYQKKGTIESISGVIDRQTGTVVARVVFPNESRLLHSGASGTVVVPSIYKNCIAIPQTATVRMQDKTIVYKVVDGKAVSTLITVAGINDGREYVVLDGLKAGDEIVSEGAGLVREGTQVK
MGSDKIHHHHHHTCSACIQYHESCAWCGAPMFDEKKPYARCDSRAKLMEHGCPNSYIEDPATKLDITEDSKLSDQGQVESEEEAVQIKPQEMYVEIRPKSRVRFNVTYRQAVDYPVDLYYLMDLSYSMKDDKQKLSELGDLLAERMRTVTKNFRLGFGSFIDKKLMPFIDPRIEKQLSPCPTPCAEPYGFKHQMSLTTNTAKFKAEVDKAEISGNLDAPEGGFDAVVQALACNKTIGWRERARKMIVFSTDAGFHFAGDGRLAGVVEPNDGTCHLDREGYYTETLNQDYPSIALLHQMIKDRKANVIFAVTKNNQDLYTQLSNALPDVSSSVGVLANDSRNIVDLIEKEYLKISEKIIMVDNANASEGLKLTYRSMCLDGTTLKDTNVCEGIRVGDEVQFEVTLENTHCIDKRDFVLRIGPSGLDETLIVNVKVLCDC
MGSDKIHHHHHHTQTTEKENEFSMSMQIRPRAEYRNGALVPRNEGQKAASFINNRARLSLDYKRSDLEIKMSAQHVGVWGQDPQIDKNGRFILNEAWAKLDFGKGFFAQLGRQTLVYDDERILGGLDWNVAGRYHDALKLGYANKNNEIHAILAFNQNDEKTAGGTYYNSSIGQPYKNMQTVWYHYKADKIPFGASLLFMNLGLETGNQLTQDSHTRYLQTMGTYLTYKNSGWNLDGAFYYQTGKNKDAESVSAFMASATAAYAFNKTWGMVVSFDYLSGNEEGSSKFKAFDPLYGTHHKFYGSMDYFYASAFNKGFAPGLIDGRLGARFRASAKVDMELNYHYFATATEVDFKEDLKKSLGSEVDYQINWSVMKDVKLSAGYSFMLGTKTMDAVKGGNHKSWQDWGWVSVNINPKVFFTKW
MGSDKIHHHHHHVAKAELMQLPASQMVIGLTVKLPLGWTQHPFFINRIKLTSQAQIELIRGLELTFVYVLSGHELLPEVIEEVEDKQADPMQVKAKPKKVLDSKAAVIKAMRVGQQRFLSNINESRSVFAQFAIEPDKAYREAATMVEGFVDHLQETDTPYLALVGSGEMDVSVTQHGISVAVLSLMIGHALELPKSDLRDLALGSLFHDFGKLKIPDNIRRKRSELTEPEQNYLKMHPNLGFDLLNACNLYPKSVLNIVLHHHEYIDGSGYPDHLTEKDIPLLTQIVSLANDYEGLLEQFTFSPQLALGTLFKSHAKKHAQNLIAALVKVLGIYPPGTLVSLSDGSIGKVMMTTREVKQPHVWSCNLGGGEANLRFLLEEDVTVSSVLRLEELTEGALKTLQADSPISFYFSALPDN
MGSDKIHHHHHHVEQTMFTNEVILSWLQYFSKNAPINLAKLKMLDITGKNKNLIPTVMSNRAVLVFTDAGHPDIFYDMWNAELGDCDIWYNEGSEPSGEIKHDKVSDMINRGINASAAMLILNPNAATNYHIGMENSRFSCGSVQYVCREVRAVIMNKLNLGDQDNICIISGESIAVEAAMIAAEGSVIAVEYDRRDRNTMQENVKKFDLNNVTIVESLENGIPDKLPVPDIAFIVGSPRIGSEIKALLSINPVMDFVIYTLDFEVLMSLPALFRENGLERTEAIHVAVSRVNSKKMVEPFPAPWLISGRSIKG
MGSDKIHHHHHHVERRIFGLENEYGVTCTFRGQRRLSPDEVARYLFRRVVSWGRSSNVFLRNGARLYLDVGSHPEYATPECDNLLDLVAHDKAGERILEGLQIDAEQRLREEGIAGDIYLFKNNTDSAGNSYGCHENYLVARHGEFGKLADVLIPFLVTRQIICGAGKVLQTPRGALYCVSQRAEHIWEGVSSATTRSRPIINTRDEPHADAERFRRLHVIVGDSNMSETTTLLKLASTDLVLRMIEANVPMRDFTLENPIRAIREISHDMTGRRKVRLANGREASALEIQREYLERVQSFVDRTGTDATGKRVLELWQRTLEAVESGNLDLVAREIDWVAKYKLLERYRAKHGLSLSSPRVAQLDLTYHDIHRDRGLFYLLQQRGQMERVVSDLRIFEAKSVPPQTTRARLRGEFIKKAQEKRRDFTVDWVHLKLNDQAQRTVLCKDPFKAVDERVEKLIAGM
MGSDKIHHHHHHVGRIEGQACPATGIWLLPARRQTAYRIQKTSYSALSAPARMDGTDRLAWGRYDTVGTTLYLAENAECAFSETLSPFKRAIGTVDPLRKDADALGMTLEDFYEEVAYQWQEKSFMNSGTLPRIWRTERQLHIVELPFPGWWIDVEHPETMAAVEAAIPDTLKDLGITHVDTSLLRSNRRDVTTAIADHLRDLVLFDGSYAPGIKFGSRHGAYLNWAVWLRDHDLQLSGDDGLVHLGESPISFNDPDLEAASRRFRLKVF
MGSDKIHHHHHHVGTGDGNAIWPIRSVHLIGAIYPHILEELMLNTVILYSTVDGQTLAICQKIKQILVEQGEQVSVVNLAEVEADDLASVDKVVIGASIRYGKHRPELFKFVEQHKVLLDTKHNSFFSVNVVARKPEKNTPETNPYMQKFSNLSAWKPQLLGVFAGKIDYPRYRFFDKFMIRFIMWMTKGPTDTQGTFEFTDWGKVDDYAKQIAAQK
